Measured values from patent US20040053357A1 (ICAGEN, published 2004).

Target: T1, Kv2.2 (UniProt Q92953 1-911, limits assumed)
T1 sequence (looked up): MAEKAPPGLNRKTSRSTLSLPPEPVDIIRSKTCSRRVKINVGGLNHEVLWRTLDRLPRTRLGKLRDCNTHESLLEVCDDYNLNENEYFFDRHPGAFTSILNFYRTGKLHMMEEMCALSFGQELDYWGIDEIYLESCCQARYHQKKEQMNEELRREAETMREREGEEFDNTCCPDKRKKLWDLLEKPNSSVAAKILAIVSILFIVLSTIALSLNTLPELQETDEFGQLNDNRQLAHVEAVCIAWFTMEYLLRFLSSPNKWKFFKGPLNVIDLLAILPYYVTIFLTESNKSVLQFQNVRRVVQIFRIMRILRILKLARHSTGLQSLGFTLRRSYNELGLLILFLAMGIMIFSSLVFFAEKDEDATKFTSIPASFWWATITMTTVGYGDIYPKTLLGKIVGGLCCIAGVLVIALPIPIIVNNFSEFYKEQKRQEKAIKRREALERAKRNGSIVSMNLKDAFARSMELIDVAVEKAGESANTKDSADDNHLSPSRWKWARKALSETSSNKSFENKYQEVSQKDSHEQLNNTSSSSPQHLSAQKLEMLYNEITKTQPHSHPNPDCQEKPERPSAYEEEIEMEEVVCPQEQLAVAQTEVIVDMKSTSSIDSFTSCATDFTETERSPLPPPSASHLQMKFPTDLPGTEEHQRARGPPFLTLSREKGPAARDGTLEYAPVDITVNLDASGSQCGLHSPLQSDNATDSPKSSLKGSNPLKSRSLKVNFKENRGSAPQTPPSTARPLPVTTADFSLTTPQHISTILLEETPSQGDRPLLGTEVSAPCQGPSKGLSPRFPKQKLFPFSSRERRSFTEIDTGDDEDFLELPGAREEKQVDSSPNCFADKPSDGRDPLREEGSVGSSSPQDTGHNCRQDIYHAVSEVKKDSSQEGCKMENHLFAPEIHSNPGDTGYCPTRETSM
Test: cell-based or functional assay

- rate of activation at 0 mV: ~2 fold
B1: human Kv10.1 (other)
chain: MLKQSERRRSWSYRPWNTTENEGSQHRRSICSLGARSGSQASIHGWTEGNYNYYIEEDEDGEEEDQWKDDLAEEDQQAGEVTTAKPEGPSDPPALLSTLNVNVGGHSYQLDYCELAGFPKTRLGRLATSTSRSRQLSLCDDYEEQTDEYFFDRDPAVFQLVYNFYLSGVLLVLDGLCPRRFLEELGYWGVRLKYTPRCCRICFEERRDELSERLKIQHELRAQAQVEEAEELFRDMRFYGPQRRRLWNLMEKPFSSVAAKAIGVASSTFVLVSVVALALNTVEEMQQHSGQGEGGPDLRPILEHVEMLCMGFFTLEYLLRLASTPDLRRFARSALNLVDLVAILPLYLQLLLECFTGEGHQRGQTVGSVGKVGQVLRVMRLMRIFRILKLARHSTGLRAFGFTLRQCYQQVGCLLLFIAMGIFTFSAAVYSVEHDVPSTNFTTIPHSWWWAAVSISTVGYGDMYPETHLGRFFAFLCIAFGIILNGMPISILYNKFSDYYSKLKAYEYTTIRRERGEVNFMQRARKKIAECLLGSNPQLTPRQEN
